Test results reported in the supplement of paper PMC9732359.
± gives the uncertainty stated by the source.

Assay: protein stability index of a GFP-peptide fusion (yeast GPS) (PSI 1-4); higher = more stable; sorted into four equal gates, so the index is relative within each strain
Summary of the method: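 For each peptide, the protein stability index sums the read frequency in every gate after multiplying it by the gate number. Read frequencies came from plasmids that were PCR-amplified from each gate and Illumina-sequenced, with reads assigned to strains by barcodes. The gates were four equal bins of GFP/Cherry fluorescence ratio applied to mid-log yeast in leucine-free medium carrying a pooled library of tiled 17-residue yeast protein peptides fused downstream of GFP on a Cherry-expressing plasmid.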

Sequence	protein stability index (doa10∆)	protein stability index (pdr5∆)	protein stability index (san1∆)	protein stability index (ubr1∆)
TKEVESNIITKSLVQYI [DIS3]	2.71 ± 0.14	3.05 ± 0.11	2.65 ± 0.076	2.87 ± 0.19
FDERIKFANQLHDEYLV [RPN3]	1.65 ± 0.092	2.02 ± 0.12	1.45 ± 0.14	1.36 ± 0.076
IGTNDLFQVESAPKISS [SIR4]	2.42 ± 0.049	2.9 ± 0.047	2.63 ± 0.047	2.43 ± 0.035
HGAASFLKERLMEASDA [RPB2]	1.37 ± 0.15	1.48 ± 0.09	1.1 ± 0.18	1.03 ± 0.087
PQDDDSQSKMMSSQISS [MTR3]	3.14 ± 0.074	3.17 ± 0.071	3.15 ± 0.043	3.27 ± 0.053
ENSIGYNNRKCWPKDSR [PRP8]	3.08 ± 0.16	2.95 ± 0.18	–	2.87 ± 0.29
ESITKAMEFIFGNSLIC [SMC2]	2.46 ± 0.071	1.55 ± 0.066	1.39 ± 0.092	1.89 ± 0.046
TPANTNNSTSNANTVFS [SWI1]	2.5 ± 0.057	2.75 ± 0.047	2.66 ± 0.04	2.931 ± 0.028
GRYLLTPPDDLHPYVPS [SRB8]	2.36 ± 0.057	2.41 ± 0.056	2.55 ± 0.061	2.66 ± 0.039
LISGPRNQILVSITDAP [YMR129W/POM152]	1.68 ± 0.092	1.81 ± 0.084	1.46 ± 0.1	1.68 ± 0.079
QPKGVILYGPPGTGKTL [RPT6]	3.47 ± 0.15	2.91 ± 0.21	3.3 ± 0.15	2.95 ± 0.21
MTAVRRSTRIRTKSQVI [IRR1]	2.9 ± 0.15	3.23 ± 0.081	3.42 ± 0.077	3.38 ± 0.1
NFIIWINSIDTTESSDL [GRR1]	2.46 ± 0.044	2.38 ± 0.047	2.61 ± 0.055	2.88 ± 0.037
EKKNDENSTSNSKPEKS [YLR335W/NUP2]	3.24 ± 0.086	3.21 ± 0.1	3.28 ± 0.054	3.3 ± 0.056
NEAALVVNITHHELVPK [RPB5]	2.93 ± 0.09	2.71 ± 0.06	3.14 ± 0.062	2.88 ± 0.081
KTFKNPKYESLKLEYYN [RPN5]	2.11 ± 0.083	1.49 ± 0.089	1.09 ± 0.23	1.25 ± 0.058
MSAAPVQDKDTLSNAER [GAL11]	3.6 ± 0.15	3.07 ± 0.16	3.34 ± 0.073	3.04 ± 0.079
KSVLGDGKKHSVFYTIL [RPO31]	2.19 ± 0.087	2.42 ± 0.085	3.02 ± 0.08	2.1 ± 0.087
PKYESLKLEYYNLLVKI [RPN5]	2.1 ± 0.084	1.48 ± 0.1	1.12 ± 0.3	1.24 ± 0.059
ADGQTLFAGYTDNVIRV [ASC1]	1.85 ± 0.055	2.16 ± 0.052	2.22 ± 0.063	2.35 ± 0.057
DHVDGSSEFVSQDTKVI [RRP46]	2.64 ± 0.056	2.24 ± 0.053	2.44 ± 0.053	2.8 ± 0.053
KKVKSASKKSGGDVVKF [SMC4]	3.09 ± 0.15	3.68 ± 0.15	2.89 ± 0.21	3.12 ± 0.16
ILLYGPPGTGKTLCARA [RPT1]	1.26 ± 0.1	1.23 ± 0.18	1.36 ± 0.19	1.28 ± 0.12
QELKLTCVAKKGIAKEH [RPB3]	3.09 ± 0.23	3.18 ± 0.13	2.92 ± 0.1	2.96 ± 0.095
KIYRVGKGDDEANGATS [RPL3]	3.45 ± 0.071	3.6 ± 0.1	3.67 ± 0.045	3.22 ± 0.11
STSVGWKYEDVVAKLED [RPL16B]	3.31 ± 0.073	2.28 ± 0.094	2.48 ± 0.11	3.33 ± 0.075
IFALCIYNSTDSNSEIL [YML103C/NUP188]	1.39 ± 0.17	2.19 ± 0.075	1.87 ± 0.14	1.95 ± 0.086

Sequence	protein stability index (doa10∆)	protein stability index (pdr5∆)	protein stability index (san1∆)	protein stability index (ubr1∆)
KLLKQPKFDVGALMALH [RPS1A]	1.9 ± 0.056	2.16 ± 0.083	1.9 ± 0.084	1.9 ± 0.069
DPSLNLKLLAKSHVLLA [BRR2]	2.02 ± 0.085	2.44 ± 0.1	1.79 ± 0.21	2.06 ± 0.15
ILNEVFTNPSIVKVFHG [RRP6]	1.24 ± 0.083	1.42 ± 0.075	1.2 ± 0.18	1.29 ± 0.05
FPIALQWTGGRGGGHHS [FAS1]	2.52 ± 0.18	1.87 ± 0.23	–	–
MTTQQEEQRSDTKNSKS [ISW2]	3.26 ± 0.17	3.08 ± 0.18	2.73 ± 0.26	3.2 ± 0.19
TKIAQSQTMAETYVASY [ECM29]	1.92 ± 0.037	2.48 ± 0.036	2.27 ± 0.044	2.22 ± 0.034
TSSQKEPFFLVTKITDM [SRB8]	2.36 ± 0.059	2.72 ± 0.071	2.52 ± 0.054	2.62 ± 0.054
MGIVQDTLCGIRKLTLR [RPO21]	2.89 ± 0.068	1.74 ± 0.053	1.87 ± 0.068	1.64 ± 0.053
LVQKFGGADQVTRTQQW [SWI1]	3.08 ± 0.13	3.06 ± 0.088	2.88 ± 0.13	2.78 ± 0.076
RTRRLKRKRRKVRARSK [RPL41A]	–	3.13 ± 0.22	–	3.22 ± 0.2
LFGNKPTTTTGGLFGNS [YGR119C/NUP57]	2.94 ± 0.1	2.79 ± 0.13	2.85 ± 0.18	3.19 ± 0.055
LNKGKKVTSMTPAPKIS [RPL36A]	–	2.98 ± 0.14	–	3.15 ± 0.12
FPKIDSLAQNDCNSALD [RPN5]	2.52 ± 0.062	2.64 ± 0.049	3.03 ± 0.05	2.93 ± 0.045
ISVGLYDTTPLLDTNSL [SKI6]	2.57 ± 0.074	2.88 ± 0.13	2.48 ± 0.099	2.51 ± 0.14
PLPSHALTVQEVLNRVA [YDL116W/NUP84]	2.29 ± 0.039	2.37 ± 0.042	2.37 ± 0.053	2.33 ± 0.027
YKWTQGINNLSEIWDVS [PRP8]	3.03 ± 0.1	2.9 ± 0.077	3.12 ± 0.099	2.44 ± 0.066
NNDGSYGLFLKYHKEQF [SRB8]	2.61 ± 0.086	2.34 ± 0.07	2.12 ± 0.12	1.82 ± 0.069
GNPVNDANLLGAEVLIK [COR1]	2.56 ± 0.086	3.02 ± 0.093	2.63 ± 0.075	2.89 ± 0.035
QEQGSFQHILRLLNTNV [RPS18A]	2.97 ± 0.045	3.06 ± 0.045	2.91 ± 0.037	3.03 ± 0.035
IPPTFDKGAVGPNNFIW [MED4]	3.22 ± 0.091	3.01 ± 0.084	2.77 ± 0.082	3.14 ± 0.11
ESWANQLTVCGAIIGWT [FAS2]	1.13 ± 0.041	1.3 ± 0.038	1.2 ± 0.088	1.44 ± 0.037
LIDFEYVNDVAIYNNPT [RRI2]	2.73 ± 0.062	2.92 ± 0.038	2.67 ± 0.057	2.95 ± 0.049
LKIFEGIPPPYDKKKRV [RPL16B]	1.43 ± 0.15	2.51 ± 0.087	1.33 ± 0.24	1.51 ± 0.066
EKLITSKLLVPQKNVKI [PRE10]	2.55 ± 0.061	2.6 ± 0.047	2.04 ± 0.096	2.21 ± 0.042
RFTPGSFTNYITRSFKE [RPS0A]	3.03 ± 0.16	3.36 ± 0.1	2.93 ± 0.1	3.07 ± 0.11
ASVVPSASSLVITALKE [RPL12A]	2.09 ± 0.044	2.3 ± 0.051	2.12 ± 0.071	1.96 ± 0.045
